Test results taken from patent EP4682166A1 (Guangzhou Enmai Biotechnology Co., Ltd, dated 2026).
Values belong to the binder of their own block, whether it stands above or below them.

Key:
[1] = target: T1, human NMI (N-myc Interacting protein), recombinant protein (human, UniProt Q13287 1-307, limits assumed); test: ELISA, binding to hNMI
T1 construct: Gene ID: 9111; also called hNMI; antigen
T1 sequence (looked up): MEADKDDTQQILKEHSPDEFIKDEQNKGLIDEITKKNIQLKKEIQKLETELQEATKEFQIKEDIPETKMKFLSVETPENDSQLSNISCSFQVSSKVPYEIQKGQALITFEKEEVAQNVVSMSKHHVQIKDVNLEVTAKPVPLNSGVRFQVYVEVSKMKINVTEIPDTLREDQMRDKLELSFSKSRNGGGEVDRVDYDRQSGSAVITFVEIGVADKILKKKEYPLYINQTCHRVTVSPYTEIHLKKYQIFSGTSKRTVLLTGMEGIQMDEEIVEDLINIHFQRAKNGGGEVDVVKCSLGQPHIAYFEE

[2] = target: T2, NMI-flag overexpressed protein (293T cells transfected with the hNMI-flag plasmid) (human) (UniProt Q13287); test: sandwich ELISA; detection 94C4-1-biotin; cell lysates of NMI-flag 293T, replicate 1
T2 sequence (looked up): T1 sequence (looked up)

[3] = target: T3, natural NMI in joint fluid of an arthritic patient (human) (UniProt Q13287); test: sandwich ELISA; detection 94C4-1-biotin 0.5µg/mL; joint fluid diluted 1/2
T3 sequence (looked up): T1 sequence (looked up)

[4] = target: T2, NMI-flag overexpressed protein (293T cells transfected with the hNMI-flag plasmid) (human); test: sandwich ELISA; detection 94C4-1-biotin; cell supernatant of NMI-flag 293T, replicate 2
[5] = target: T2, NMI-flag overexpressed protein (293T cells transfected with the hNMI-flag plasmid) (human); test: sandwich ELISA; detection 94C4-1-biotin; cell supernatant of NMI-flag 293T, replicate 1
[6] = target: T4, human NMI (N-myc Interacting protein) (human) (UniProt Q13287); test: magnetic-bead chemiluminescent sandwich, kit of Example 8-1; capture 98G10 beads, detection acridinium-B-8; series 2, hNMI 150 pg/mL
T4 sequence (looked up): T1 sequence (looked up)

[7] = target: T4, human NMI (N-myc Interacting protein) (human); test: magnetic-bead chemiluminescent sandwich, kit of Example 8-1; capture 98G10 beads, detection acridinium-B-8; series 1, hNMI 1000 pg/mL
[8] = target: T4, human NMI (N-myc Interacting protein) (human); test: magnetic-bead chemiluminescent sandwich, kit of Example 8-1; capture 98G10 beads, detection acridinium-B-8; series 3, hNMI 10000 pg/mL
[9] = target: T4, human NMI (N-myc Interacting protein) (human); test: magnetic-bead chemiluminescent sandwich; capture 98G10 beads, detection acridinium-B-8 (1.0 mg B-8 labelled); hNMI 1000 pg/mL
[10] = target: T4, human NMI (N-myc Interacting protein) (human); test: magnetic-bead chemiluminescent sandwich, kit of Example 8-1; capture 98G10 beads, detection acridinium-B-8; series 3, hNMI 200 pg/mL
[11] = target: T4, human NMI (N-myc Interacting protein) (human); test: magnetic-bead chemiluminescent sandwich; capture 98G10 beads (1.0 mg 98G10), detection acridinium-B-8; hNMI 50 pg/ml
[12] = target: T4, human NMI (N-myc Interacting protein) (human); test: magnetic-bead chemiluminescent sandwich, kit of Example 8-1; capture 98G10 beads, detection acridinium-B-8; series 2, hNMI 10000 pg/mL
[13] = target: T4, human NMI (N-myc Interacting protein) (human); test: magnetic-bead chemiluminescent sandwich, kit of Example 8-1; capture 98G10 beads, detection acridinium-B-8; series 2, hNMI 1800 pg/mL
[14] = target: T4, human NMI (N-myc Interacting protein) (human); test: magnetic-bead chemiluminescent sandwich; capture 98G10 beads, detection acridinium-B-8 (2.0 mg B-8 labelled); hNMI 50 pg/mL
[15] = target: T4, human NMI (N-myc Interacting protein) (human); test: magnetic-bead chemiluminescent sandwich; capture 98G10 beads, detection acridinium-B-8 (2.0 mg B-8 labelled); hNMI 400 pg/mL
[16] = target: T4, human NMI (N-myc Interacting protein) (human); test: magnetic-bead chemiluminescent sandwich, kit of Example 8-1; capture 98G10 beads, detection acridinium-B-8; series 3, hNMI 1000 pg/mL
[17] = target: T4, human NMI (N-myc Interacting protein) (human); test: magnetic-bead chemiluminescent sandwich, kit of Example 8-1; capture 98G10 beads, detection acridinium-B-8; series 2, hNMI 900 pg/mL
[18] = target: T4, human NMI (N-myc Interacting protein) (human); test: magnetic-bead chemiluminescent sandwich, kit of Example 8-1; capture 98G10 beads, detection acridinium-B-8; series 1, hNMI 6000 pg/mL
[19] = target: T4, human NMI (N-myc Interacting protein) (human); test: magnetic-bead chemiluminescent sandwich, kit of Example 8-1; capture 98G10 beads, detection acridinium-B-8; series 3, hNMI 50 pg/mL
[20] = target: T4, human NMI (N-myc Interacting protein) (human); test: magnetic-bead chemiluminescent sandwich; capture 98G10 beads, detection acridinium-B-8 (1.0 mg B-8 labelled); hNMI 100 pg/mL
[21] = target: T4, human NMI (N-myc Interacting protein) (human); test: magnetic-bead chemiluminescent sandwich; capture 98G10 beads (0.5 mg 98G10), detection acridinium-B-8; hNMI 100 pg/ml
[22] = target: T4, human NMI (N-myc Interacting protein) (human); test: magnetic-bead chemiluminescent sandwich; capture 98G10 beads (1.0 mg 98G10), detection acridinium-B-8; hNMI 100 pg/ml
[23] = target: T4, human NMI (N-myc Interacting protein) (human); test: magnetic-bead chemiluminescent sandwich, kit of Example 8-1; capture 98G10 beads, detection acridinium-B-8; series 1, hNMI 12000 pg/mL
[24] = target: T4, human NMI (N-myc Interacting protein) (human); test: magnetic-bead chemiluminescent sandwich, kit of Example 8-1; capture 98G10 beads, detection acridinium-B-8; series 2, hNMI 7500 pg/mL

EC50 [1]: 0.309 nM | OD450 [2]: 3.03 OD450 | OD450 [3]: 0.128 OD450 | OD450 [4]: 0.95 OD450 | OD450 [5]: 0.897 OD450
B1: monoclonal antibody B-8 (antibody, V domains shown)
VH: QSLEESGGDLVKPGASLTLTCTASGFSFSSSYYMCWVRQAPGKGLEWIACIYAGSSGSTYYASWAKGRFTISKTSSTTVTLQMTSLTAADTATYFCAREYSYDDYGDFWGFNLWGPGTLVTVSS
VL: ALVMTQTPSSVSAAVGGTVTINCQASQNIYTNLAWYQQKPGQPPKLLIYGASNLESGVPSRFKGSGSGTEYTLTISDLECDDAATYYCQSSLYSRIADRANAFGGGTEVVVK
notes: Rabbit monoclonal antibody; also called B8-1

Signal value [6]: 15500 | Signal value [7]: 57600 | Signal value [8]: 1.48e+06 | Signal value [9]: 97600 | Signal value [10]: 25700 | Signal value [11]: 11100 | Signal value [12]: 1.19e+06 | Signal value [13]: 181000 | Signal value [14]: 6220 | Signal value [15]: 44600 | Signal value [16]: 131000 | Signal value [17]: 98500 | Signal value [18]: 414000 | Signal value [19]: 6120 | Signal value [20]: 9490 | Signal value [21]: 9490 | Signal value [22]: 20400 | Signal value [23]: 894000 | Signal value [24]: 900000
B2: acridinium ester-labeled monoclonal antibody B-8 (antibody, V domains shown)
VH: B1 VH
VL: B1 VL
modifications: acridinium ester label on the antibody, site not stated
